In patent US20170204184A1 (CB THERAPEUTICS, published 2017):

B1: hu5G11-hIgG1 (antibody)
heavy: not shown
light: DIQMTQSPSSLSASVGDRVTITCKASQSVSNDVAWYQQKPGKAPKLLIYYAANRYTGVPDRFSGSGYGTDFTFTISSLQPEDIATYFCQQDYTSPYTFGQGTKLEIKRTVAAPSVFIFPPSDEQLKSGTASVVCLLNNFYPREAKVQWKVDNALQSGNSQESVTEQDSKDSTYSLSSTLTLSKADYEKHKVYACEVTHQGLSSPVTKSFNRGEC
notes: Humanized IgG1 with D265A; also called Humanized 5G11-IgG1 (D265A); hu-5G11-IgG1
B2: hu5G11 (antibody)
VH: QITLKESGPTLVKPTQTLTLTCTVSGFSLSTYGVHWIRQPPGKALEWLGVIWRGVTTDYNAAFMSRLTITKDNSKNQVVLTMNNMDPVDTATYYCARLGFYAMDYWGQGTLVTVSS
light: DIQMTQSPSSLSASVGDRVTITCKASQSVSNDVAWYQQKPGKAPKLLIYYAANRYTGVPDRFSGSGYGTDFTFTISSLQPEDIATYFCQQDYTSPYTFGQGTKLEIKRTVAAPSVFIFPPSDEQLKSGTASVVCLLNNFYPREAKVQWKVDNALQSGNSQESVTEQDSKDSTYSLSSTLTLSKADYEKHKVYACEVTHQGLSSPVTKSFNRGEC
B3: hu5G11-hIgG4 (antibody)
heavy: not shown
light: DIQMTQSPSSLSASVGDRVTITCKASQSVSNDVAWYQQKPGKAPKLLIYYAANRYTGVPDRFSGSGYGTDFTFTISSLQPEDIATYFCQQDYTSPYTFGQGTKLEIKRTVAAPSVFIFPPSDEQLKSGTASVVCLLNNFYPREAKVQWKVDNALQSGNSQESVTEQDSKDSTYSLSSTLTLSKADYEKHKVYACEVTHQGLSSPVTKSFNRGEC
notes: Humanized IgG4 with F234A and L235A; also called Humanized 5G11-IgG4 (F234A/L235A); hu-5G11-IgG4
B4: ch8H4-hIgG4 (antibody, V domains shown)
VH: EVKLVESGGGLVKPGGSLKLSCAASGFTFRSYGMSWARQIPEKRLEWVASISSGGTTYYLGSVQGRFTISRDNARNILYLQMSSLRSEDTAMYYCARGYDAGFAYWGQGTLVSVSS
VL: DIVLTQSPASLAVSLGQRATISCRASQSVSTSSYSYMHWYQQKPGQPPKLLIKYASNLESGVPARFSGSGSGTDFTLNIHPVEEEDTATYYCQNSWEIPYTFGGGTKLEIKR
notes: Mouse-human chimeric IgG4 (F234A/L235A), human kappa; also called Chimeric 8H4-IgG4 (F234A/L235A); chimeric 8H4-hIgG4
B5: hu13C5-hIgG1 (antibody)
heavy: not shown
light: DIVLTQSPASLAVSPGQRATITCRASQSVSTSSSSFMHWYQQKPGQPPKLLIKYASNLESGVPARFSGSGSGTDFTLTINPVEANDTANYYCQHSWEIPYTFGQGTKLEIKRTVAAPSVFIFPPSDEQLKSGTASVVCLLNNFYPREAKVQWKVDNALQSGNSQESVTEQDSKDSTYSLSSTLTLSKADYEKHKVYACEVTHQGLSSPVTKSFNRGEC
notes: Humanized IgG1 with D265A; also called Humanized 13C5-IgG1 (D265A); hu-13C5-IgG1
B6: hu13C5-hIgG4 (antibody)
heavy: not shown
light: DIVLTQSPASLAVSPGQRATITCRASQSVSTSSSSFMHWYQQKPGQPPKLLIKYASNLESGVPARFSGSGSGTDFTLTINPVEANDTANYYCQHSWEIPYTFGQGTKLEIKRTVAAPSVFIFPPSDEQLKSGTASVVCLLNNFYPREAKVQWKVDNALQSGNSQESVTEQDSKDSTYSLSSTLTLSKADYEKHKVYACEVTHQGLSSPVTKSFNRGEC
notes: Humanized IgG4 with F234A and L235A; also called Humanized 13C5-IgG4 (F234A/L235A); hu-13C5-IgG4
B7: ch5G11-hIgG1 (antibody)
heavy: not shown
light: SIVMTQTPKFLLVSAGDRVTITCKASQSVSNDVAWYQQKPGQSPKLLIYYAANRYTGVPDRFTGSGYGTDFTFTISIVQAEDLAVYFCQQDYTSPYTFGGGTKLEIKRTVAAPSVFIFPPSDEQLKSGTASVVCLLNNFYPREAKVQWKVDNALQSGNSQESVTEQDSKDSTYSLSSTLTLSKADYEKHKVYACEVTHQGLSSPVTKSFNRGEC
notes: Mouse-human chimeric IgG1 (D265A), human kappa; also called Chimeric 5G11-IgG1 (D265A); ch-5G11-IgG1
B8: ch5G11-hIgG4 (antibody)
heavy: not shown
light: SIVMTQTPKFLLVSAGDRVTITCKASQSVSNDVAWYQQKPGQSPKLLIYYAANRYTGVPDRFTGSGYGTDFTFTISIVQAEDLAVYFCQQDYTSPYTFGGGTKLEIKRTVAAPSVFIFPPSDEQLKSGTASVVCLLNNFYPREAKVQWKVDNALQSGNSQESVTEQDSKDSTYSLSSTLTLSKADYEKHKVYACEVTHQGLSSPVTKSFNRGEC
notes: Mouse-human chimeric IgG4 (F234A/L235A), human kappa; also called Chimeric 5G11-IgG4 (F234A/L235A); ch-5G11-IgG4
B9: ch8C6-hIgG4 (antibody, V domains shown)
VH: QVQLKQSGPGLVQPSQSLSITCTVSGFSLTSYGVHWVRQSPGKGLEWLGVIWSGGVTDYNAAFISRLSISKDNSKSQVFFKMNSLQANDTAIYYCARLGFYAMDYWGQGTSVTVSS
VL: SIVMTQTPKFLLVSAGDRVTITCKASQSVSNDVGWYQQKPGQSPKLLIYYASNRYSGVPDRFTGSGYGTDFTFTISTVQAEDLAVYFCQQDYTSPYTFGGGTKLEIKR
notes: Mouse-human chimeric IgG4 (F234A/L235A), human kappa; also called Chimeric 8C6-IgG4 (F234A/L235A); chimeric 8C6-hIgG4

What was measured:
[1] = target: T1, biotinylated human PD-L1-mFc (human, biotinylated (sites not given)); assay: competition ELISA: blocks PD-L1-mFc-biotin binding to coated PD-1-hFc
T1 construct: also called PDL-1-mFc-biotin
Method: The wells were aspirated and non-specific binding sites were blocked by adding 200 μL of blocking buffer (PBS with 1% (w/v) of bovine serum albumin (BSA, Roche, Cat No:738328)) and incubating for 1 hour at 37° C. After the plate was washed three times with wash buffer (PBS with 0.05% (v/v) Tween20 (Sigma, Cat No:P1379)), 100 μL/well of 1:3 serial dilutions of hybridoma (FIG. 4), chimeric (FIG. 5), or humanized (FIG. 6) anti-PD-L1 antibodies in blocking buffer (starting from 20 μg/mL) were added and incubated at 37° C. for 1 hour. […] After the plate was washed 3 times, secondary antibody (Avidin HRP eBioscience cat No.: E07418-1632, 1:500, 100 μl/well) was added and incubated at 37° C. for 0.5 hour. After the plate was washed, 100 μL/well of substrate solution TMB (eBioscience, Cat No: 00-4201-56) was added and the plate was incubated for 3min at room temperature. 100 μL/well of stop solution (2N H₂SO₄) was added to stop the reaction. The colorimetric signals were developed and read at 450 nm using an Auto Plate SpectraMax Plus (Supplier: Moleculer Devices; Model: MNR0643; Software: SoftMax Pro v5.4). Data were analyzed using GraphPad Prism 5 and IC50 was calculated (FIGS. 4-6; Tables 8-10).

PD-L1 on 293T cells [2] = target: T2, PD-L1 on 293T cells (UniProt Q9NZQ7 19-290); assay: flow cytometry competition: blocks biotin-labeled PD-1 binding to PD-L1-293T cells
T2 construct: whole, on cells; also called PD-L1-293T; 293T-PD-L1 cells
Method: Briefly, PD-L1-293T cells were suspended in FACS buffer (PBS with 3% fetal calf serum). Various concentrations of the hybridoma (FIG. 10), chimeric (FIG. 11), or humanized (FIG. 12) anti-PD-L1 antibodies were added to the cell suspension and incubated at 4° C. for 60 minutes in 96 well plates. […] The cells were washed 3 times with PBS and incubated with mouse anti-biotin PE (Biolegend, cat# 409004). The cell-associated fluorescence was then detected by flow cytometry analysis using FACS array.

hPD-L1-mFc = target: T3, hPD-L1-mFc (human); assay: ELISA, coated PD-L1-mFc
T3 construct: it may hold a signal peptide; also called human PD-L1-mFc; PD-L1-mFc (Crownbio)
Method: ELISA binding analyses were conducted based on human PD-L1-mFc (for chimeric and humanized antibody detection) and PD-L1-hFc protein (for hybridoma antibody detection). 96-well plates (Costar, Cat No: 9018) were coated with 100 μL of 2 μg/ml PD-L1-mFc (Crownbio) in coating buffer PBS (Hyclone, Cat No: SH30256.01B) overnight at 4° C. The wells were aspirated and non-specific binding sites were blocked by adding 200 μL of blocking buffer (PBS with 1% (w/v) of bovine serum albumin (BSA, Roche, Cat No:738328)) and incubating for 1 hour at 37° C. After the plates were washed three times with wash buffer (PBS with 0.05% (v/v) Tween20 (Sigma, Cat No:P1379)), 100 μL/well of 1:10 serial dilutions of hybridoma (FIG. 1), chimeric (FIG. 2), or humanized (FIG. 3) anti-PD-L1 antibodies in blocking buffer (starting from 20 μg/mL) were added and incubated at room temperature for 1 hour. The plates were washed and incubated with 100 μL/well of Goat anti-Mouse IgG (H+L) (Thermo, Cat No: 31432) in blocking buffer for 60 min. After the plates were washed, 100 μL/well of substrate solution TMB (eBioscience, Cat No: 00-4201-56) were added and the plates were incubated for 2 min at room temperature. 100 μL/well of stop solution (2N H₂SO₄) was added to stop the reaction. The colorimetric signals were developed and read at 450 nm using an Auto Plate SpectraMax Plus (Supplier: Moleculer Devices; Model: MNR0643; Software: SoftMax Pro v5.4). Data were analyzed using GraphPad Prism 5 and EC50 was calculated (FIGS. 1-3; Tables 5-7).

PD-L1 on 293T cells [3] = target: T2, PD-L1 on 293T cells; assay: flow cytometry on PD-L1-293T cells
Method: Cell binding analyses of anti-PD-L1 antibodies were performed based on binding to a 293T cell line stably expressing PD-L1 (PD-L1-293T). 2×10⁵ 293T-PD-L1 cells were added into each well of 96-well culture plates and incubated with the indicated antibody (20 μg/ml with the dilution of 1:5) at 4° C. for 1 h. After the cells were washed three times with FACS buffer, the secondary antibody (PE Goat anti-mouse: 1:200; PE mouse anti-human: 1:10) was added to the cells at 100 μl/well, and incubated at 4° C. for 40 min. Cells were washed three times with FACS buffer and analyzed by FACS Array.

Human PD-L1 = target: T4, Human PD-L1 (human, UniProt Q9NZQ7 19-238, limits assumed); assay: SPR (Biacore 3000), antibody captured, PD-L1 as analyte, 1:1 fit
T4 construct: also called PD-L1 analyte (Biacore); hPD-L1
Method: (§1) The binding kinetics between PD-L1 and PD-L1 antibodies were measured by Biacore analysis, which was performed at 25° C. on a Biacore3000 instrument and recorded with a data collection rate of 1 Hz. Polyclonal rabbit anti-mouse IgG (GE, BR-1008-38) was diluted with 10 mM pH 5.0 sodium acetate and immobilized onto reference and experiment flow cells of a CM5 biosensor chip to around 15000 RU using an amine coupling kit (GE, BR10050). […] PD-L1 analyte series were prepared by diluting the stocks with running buffer to 100 nM followed by 2× serial dilution in the same buffer down to 0.78 nM. Analytes were injected in series over the reference and experiment flow cells for 3 minutes at a flow rate of 30 μL/minute. Running buffer (PBS with 0.05% P20) was allowed to flow over for 10 minutes at a flow rate of 30 μL/minute. At the end of each cycle, the biosensor surface was regenerated with 3 minutes injection of 10 mM pH1.7 Glycine-HCl buffer at a flow rate of 10 μL/minute. For each analyte sample injection (i.e. each cycle), binding responses obtained from the experimental biosensor surface were double referenced by subtracting simultaneously recorded responses from the reference surface followed by additional subtraction of responses from a single referenced running buffer sample. The association and dissociation rate constants (ka and kd) were determined simultaneously by fitting double-referenced sensorgrams of the entire titration series to Langmuir model (1:1) using Biaevaluation 4.0 software. The dissociation constant, KD, was calculated from the determined rate constants by the relation KD=kd/ka.

cynomolgus PD-L1 = target: T5, cynomolgus PD-L1 (cynomolgus, UniProt G7PSE7 19-238); assay: as above
T5 construct: also called Cyno-PD-L1; cyno-PD-L1; not shown: Any tag or Fc carrier on the soluble cynomolgus PD-L1 analyte
Method: as §1

| Binder | IC50 [1] [µg/mL] | IC50 (PD-L1 on 293T cells [2]) [µg/mL] | EC50 (hPD-L1-mFc) [µg/mL] | EC50 (PD-L1 on 293T cells [3]) [µg/mL] | Kd (Human PD-L1) [nM] | Kd (cynomolgus PD-L1) [nM] |
| --- | --- | --- | --- | --- | --- | --- |
| B1 | 0.794 | 0.0165 | 0.0495 | 0.0479 | – | – |
| B2 | – | – | – | – | 0.225 | 0.275 |
| B3 | 0.823 | 0.0096 | 0.0699 | 0.0543 | – | – |
| B4 | 0.848 | 0.042 | 0.134 | – | – | – |
| B5 | 1.2 | 0.0185 | 0.0856 | 0.08 | – | – |
| B6 | 1.19 | 0.0499 | 0.127 | 0.0804 | – | – |
| B7 | 1.01 | 0.0404 | 0.0821 | 0.0583 | – | – |
| B8 | 0.926 | 0.0332 | 0.09 | 0.0897 | – | – |
| B9 | 0.477 | 0.0349 | 0.076 | – | – | – |
